The record followed here is the nanobody polyreactivity screen of Harvey et al. (2022).

The series is described as follows: yeast display, Sf9 membrane polyspecificity reagent, FACS + sequencing; frameworks hold sequencing errors. Summed up:
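Galactose-induced (36–48 hours) yeast carrying a synthetic nanobody display library were exposed to 10% biotinylated, detergent-solubilized Sf9 membrane reagent at 4 °C for 1 hour. FACS followed streptavidin microbead enrichment, using low and high (top ~1%) gates for expression (anti-HA) and reagent binding (streptavidin). Colony PCR, MiSeq 2 × 250 sequencing and CDR-length filtering followed. Labels for polyreactivity reflect the gate of origin.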
With “QVQLVESGGGLVQAGGSLSLSCAASGSIVAYNAMGWYRQAPGKERELVAAITDSGGSTFYADSVKGRFTISRDNAKNTVYLQMNSLKPEDTAVYYCATSGDRLVWGQGTQVTVSS”, the “polyreactivity (PSR sort gate)” value was “low polyreactivity”. The result for “QVQLVESGGGLVQAGGSLSLSCAASGSTFGLNASGWYRQAPGKEREFVAAITSGGTYYADSVKGRFTISRDNAKYTVYLHMYSLKPEDTSVYYCAADGTWSIYGGMYYWGQGTQVTVSS” reads “low polyreactivity”; that for “QVQLVESGGGLVQAGGSLSLSCAASGSTFKHYAMGWYRKAPGKERELVAAISSRGGSTHYADSVKGRFTISRDNAKNTVYLQMNSLKPEDTAVYYCARDTDPQSSRSSDYDYWGQGTQVTVSS”, “low polyreactivity”. The value for “QVQLVESGGGLVQAGGSLSLSCAASGSTFKRYAMGWYRQAPGKERDLVASISSGGSTNYADSVKGRFTISRDNAKNTVNLQMNSLKPEETAVYYCAVSYRSFRYYWERYYSWGQGTQVTVSS” was “high polyreactivity”; that for “QVQLVESGGGLVQAGGSLSLSCAASGSTFWYYAMGLYRQAPGKERELVAAITRGGNTYYADSVKGRFTISRDNAKNTVYLQMNSLKPEDTAVYYCAAGFYLLGKYDYWGQGTQVTVSS” was “high polyreactivity”. The result for “QVQLVESGGGLVQAGGSLSLSCAASGSTFYPYAMGWYRQAPGTERELVAAISSGGSTSYADSVKGRFTISRDNAKNTVYLQMNSLKPEDTAVYYCAAEGPEIKYYYWGQGTQVTVSL” reads “low polyreactivity”; that for “QVQLVESGGGLVQAGGSLSLSCAASGSTIVYYAMGWYRPAPRKERELVAAINYSSGSTYYADSVKGRFTISRDNSKKTVYLQMNSLKPEDRAVYYCATDLLYYQYYSEYDYWGQGTQVTVSS”, “high polyreactivity”. With “QVQLVESGGGLVQAGGSLSLSCAATGRTFYHYVMGWYRQAPGKERELVAAISVSGGRTYYADSVKGRFTISRDNAKNTVYLQMNSLKPEDTAVYYCNARYGHRVRKEAGLSYYWGQGTQVTVSS”, the “polyreactivity (PSR sort gate)” value is on record as “high polyreactivity”. The value for “QVQLVESGGGLVQAGGSLSLSCAATGSTLKFNAMGWYRQAPGKERELVAAINFSGGSTYYADSVKGRFTISRDNAKNTVYLQMNSLKPEDTAVYYCAAEASYYSRSVRWRYDYYYWGQGTQVTVSS” was “high polyreactivity”; that for “QVQLVESGGGLVQAGGSLSLSCDASGSTFYTYAMGWSRQEPGKERELVAAITSSGGSTYYADSVKGRFTISRDNAKNTVYLLMNSLKPEDTAVYYCAARVLGGFGFWGQGTQVTVSS” was “high polyreactivity”; that for “QVQLVESGGGLVQAGGSLSLSWAASGFIFRLYAMGWYRQAPGKERELVSGITQRGGRTYYADSLKGRFTISRDNANNTVYLQMNSLKPEDTAVYYCAADRCEYVYWGQGTQVTVSS” was “high polyreactivity”. The result for “QVQLVESGGGLVQAGGSLSLTCAAYGRTITRYVMGWYRQAPGKERELVAYISRGGSTNYADSVKGRFTISRDNAKNTVYLQMNSLKPEDSAVYYCAARFSWGGYYSTTYPLTHDYWGQGTQVNVSS” reads “high polyreactivity”. For the sequence “QVQLVESGGGLVQAGGSLSLTCDASGFILYYYAMGRYRQAPGKERELVAAIDWDGDRTYYADSVKGRFTISRDIAKNTVYLQMNSLKPEDTAVYYCAAEWPVNFDYWGQGTQVTVSS”, the “polyreactivity (PSR sort gate)” value was “low polyreactivity”. Consider “QVQLVESGGGLVQAGGSPLLSCAASGSIFPSYDMGWYRQAPGKERELVAPLSWSGSTTYSADSVKGRFTISRDNAKNTVSLQMNSLKPEDTAVYYCAVDSNPPDWWAVIYGYWGQGTQVTVSS”, for which the “polyreactivity (PSR sort gate)” value is “low polyreactivity”. The value for “QVQLVESGGGLVQAGGSPRLSCAASGFTFYLYAMGWYRQAPGKERELVAAITRVGSTYYADSVKGRFTISRDNAKNTVYLQMNSLKPEDSAVYYCATDLSQVGFDYWGQGTQVSVSS” was “high polyreactivity”; that for “QVQLVESGGGLVQAGGSPRLSCAASGSIFSRNTMGWYRQAPGKERELVATITSGSNTNYADSVKGRFTISRDNAKNTVYLQMNSLKPEDTAVYYWGQGTQVTVSS” was “low polyreactivity”; that for “QVQLVESGGGLVQAGGSPRLSCAASGSTFVPYDMGWYRQAPAKERELVAAISRGGSTYYADSVKGRFTISRDNAKNTFYLQMNSLKPEDTAVYYCDARARICTVDYWVQGTQVTVSS” was “high polyreactivity”. The result for “QVQLVESGGGLVQAGGSQRLSCDSSGSTFRYYAMGWYRPAPGKQRELVAVITWNGGGTYYADSMKGRFTISRDNAKNNVYLHMNSLKPVDTAVYYCAADASLYTDEYDNWGLGTQVTVSS” reads “low polyreactivity”; that for “QVQLVESGGGLVQAGGSRLSCAASGRIFPVYAMGWYIQAPGKERELVAGINSSGDNTYYADSVKGRFTISRDNAKNTVYLQMNSLKPEDTAVYYCAAYYPYYVPYGFDYCGQGTQVTVSS”, “low polyreactivity”; that for “QVQLVESGGGLVQAGGSRPLSCAASGFIFDSNAMGWYRQAPGKGTDLVAAISWSGTSTFYADSVKGRFTISRDNAKNTVYLQMNSLNPEDTAVYYCAAKYGRRGFNRYGYWGQGTQVTVSS”, “high polyreactivity”. With “QVQLVESGGGLVQAGGSRRLSCAAAGIIFYAYAMGWYRQAPGKEREFVARISRGGSTNYADSVKGRFTLSRDNAKNTVYLQMNSLKPEDTAVYYCAAYYAYLRYGGLYEYWGQGTQVTVSS”, the “polyreactivity (PSR sort gate)” value was “high polyreactivity”. The result for “QVQLVESGGGLVQAGGSRRLSCAASGFTFHYYAMGWYRQAPGKERELVAVITSGGSTTYADSVKGRFTISRDNAKNTVYLQMNSLKPEDTAVYYCATDNPFLWWFRPDQHGMGYWGQGTQVTVSS” reads “low polyreactivity”. The result for “QVQLVESGGGLVQAGGSRRLSCAASGRFFSAYAMGWYRQAPGKDRELVAAITWSGANTDYADSVKGRFTISRDNANNTVYLQMNSLKPEDTAVYYCNASVGRDSAYDYWGQGTQVTVSS” reads “low polyreactivity”. The value for “QVQLVESGGGLVQAGGSRRLSCAASGRIFGWYAMGWYRQAPGKERELVAAISRGGTRTNYADSVKGRFTISRDNAKNTGYLKMNSLKPEDTAVYYCASESFYSQFDYWGQGSQVTVSS” was “high polyreactivity”; that for “QVQLVESGGGLVQAGGSRRLSCAASGRTFDFYAMGWYRQAPGKERELVAAITGADTSTYYADSVKGRFTISRDNAMNTDYLQMNSLKPEDTAVYYCASDGQWAYTVDPYVIYYRLDYWGQGTQVTVSS” was “low polyreactivity”; that for “QVQLVESGGGLVQAGGSRRLSCAASGRTFFYNAMGWYRQAPGKERELLAAISYSGGSTYYADSVKGRFTISRDNAKNTVYLQMNSLKPEDTAVYYCAARDKTRSVRRTGMDYWGQGTQVTVSS” was “high polyreactivity”. On to “QVQLVESGGGLVQAGGSRRLSCAASGRTFQYYAMGCYRQATGKERELVAAINNSGGSTYYSDSVKGRFTISRDNAKNTFYLQMNSLKQEDTAVYYCAAVSYRRHFGPYNYWGQGTQVTVSS”, for which the “polyreactivity (PSR sort gate)” value was “low polyreactivity”. The result for “QVQLVESGGGLVQAGGSRRLSCAASGRTSTYYAMGWYRQAPGKERELVAVITRGGSTYYADSVKGRFTISRDNAKNTVYLQMNSLKPEDTAVSYCNADGRVQRKYDYWGQGTQVTVSS” reads “high polyreactivity”; that for “QVQLVESGGGLVQAGGSRRLSCAASGSTFDFYVMGWYRQAPGKERELVAAIRWSGGSTYYADSVKGRFTISRDNAKNTVDLPMTRLKPEDTAVDYCPADGDHYGYSYYYGYGYWGQGTQVTVSS”, “high polyreactivity”; that for “QVQLVESGGGLVQAGGSRRLSCAASGSTFRGNAMGWYRQAPGKERELVAASTWSGDDTYYADSVKGRFTISRDNAKNTVYLQMNSLKPEDTPVSYCAADLAAFTLAVADTYDYWGQGTQVTVSS”, “low polyreactivity”. The result for “QVQLVESGGGLVQAGGSRRLSCAASGSTFRGNARGRYRQAPGKERELVAAITWSGDDTYYADSVKGRFTISRDNAKNTVYIQMNSLKPEDTAVYYCAADVQPDTRSTPEMDYWGQGTQVTVSS” reads “low polyreactivity”; that for “QVQLVESGGGLVQAGGSRRLSCAGSGSTVTGYAMGWYRQAPGKDRELVAAISSRGGSTYYADSVKGRFTISRDNAKTTVYLQMNSLKPEDTAGYYCATSYKSEQYHGKPFYYWGQGTQVTVSS”, “high polyreactivity”. Turning to “QVQLVESGGGLVQAGGSRSLSCAASGRTFTLNVMGWYRQAPGKERELVAAISTSSGRTYYADSVKGRFTISRDNAKNTVYLQMNSLKPEDTAVYYCNAVAHRQAQGDWGQGTQVTVSS”, the “polyreactivity (PSR sort gate)” value is “low polyreactivity”.

As for “QVQLVESGGGLVQAGGSVRLSCAASGRIFRYYALGWYRQAPGQEREWVAGITRGGTTNYADSVKGRFTISRDNATNTVSLQMNSLKPEDTAVYYCAADTRRGIIGYDYWGQGTQVTVSS”, the “polyreactivity (PSR sort gate)” value was “high polyreactivity”.

“QVQLVESGGGLVQAGGSVRLSCAASGSICFYAMGWYRQAPGKERELVAAISWRGGSTYYADSVKGRFTISRDNAKNTVYLQMNSLKPEDTAVYYCAKATRRYDVYTYGYWGQGTQVTVSS”: the “polyreactivity (PSR sort gate)” value is given as “high polyreactivity”. As for “QVQLVESGGGLVQAGGTLPLSCAATGSILGYYAMGWYRHAPGKERELVAITSGDSTYYADSVKGRFTISRDNAKNTVYLQMNSLKPEDTAVYYCAADVVRGSRYNRYGYWGQGTQVTVSS”, the “polyreactivity (PSR sort gate)” value was “high polyreactivity”. The result for “QVQLVESGGGLVQAGGTLRISCAASGRTFGIYAMGWSRQAPGKERELVAAITGRGGSTHYADSVKGRFTISRDNAKNTVYLQMNSLQPEDTAVYYCAADYRYNRGITSNKDYEYWGQGTQVSVSS” reads “low polyreactivity”; that for “QVQLVESGGGLVQAGGTLRLSCAASGFIFGPNAMGWYRQAPGKERELVAAISWIGSSTYYADSVKGRFTISRDNAKNTVYLEMNSLKPEDTAVYYCNADLWVPSYLWGDYWGQGTQVTVSS”, “low polyreactivity”; that for “QVQLVESGGGLVQAGGTLRLSCAASGFTFGFKAMGWYRQAPGKEREFVASITYRGGSTYYADSVKGRFTISRDNAKNSVYLQMNSLKPEDTAVYFCATVSTRLRDYWGQGTQVTVSS”, “high polyreactivity”. Turning to “QVQLVESGGGLVQAGGTLRLSCAASGFTFNYYAMGWYRQAPGKERELFAAISSRGTGTYYADSVKGRFTISRDNAKNTVYFQMNSLKPEDTAVYYCAADWFTWSWQETRYGYWGQGTQVTVSS”, the “polyreactivity (PSR sort gate)” value is reported as “high polyreactivity”.

For “QVQLVESGGGLVQAGGTLRLSCAASGFTYKYYGMGWYRQAPGKERELVAAITSSGSTYYADSVKGRFTISRDNAKNTVYLQMNSLKPEDTAVYYCAAEGQRWQRWRYNYWGQGTQVTVSS”, the “polyreactivity (PSR sort gate)” value was “high polyreactivity”.
